{"source": "paper PMC13218722", "key": {"[1]": {"target": "LFA-1 (CD11a/CD18) on THP-1 cells and primary human NK cells (human (endogenous in THP-1 and primary NK cells)) (UniProt P20701)", "sequence (P20701 26-1170, chain 1 of 2)": "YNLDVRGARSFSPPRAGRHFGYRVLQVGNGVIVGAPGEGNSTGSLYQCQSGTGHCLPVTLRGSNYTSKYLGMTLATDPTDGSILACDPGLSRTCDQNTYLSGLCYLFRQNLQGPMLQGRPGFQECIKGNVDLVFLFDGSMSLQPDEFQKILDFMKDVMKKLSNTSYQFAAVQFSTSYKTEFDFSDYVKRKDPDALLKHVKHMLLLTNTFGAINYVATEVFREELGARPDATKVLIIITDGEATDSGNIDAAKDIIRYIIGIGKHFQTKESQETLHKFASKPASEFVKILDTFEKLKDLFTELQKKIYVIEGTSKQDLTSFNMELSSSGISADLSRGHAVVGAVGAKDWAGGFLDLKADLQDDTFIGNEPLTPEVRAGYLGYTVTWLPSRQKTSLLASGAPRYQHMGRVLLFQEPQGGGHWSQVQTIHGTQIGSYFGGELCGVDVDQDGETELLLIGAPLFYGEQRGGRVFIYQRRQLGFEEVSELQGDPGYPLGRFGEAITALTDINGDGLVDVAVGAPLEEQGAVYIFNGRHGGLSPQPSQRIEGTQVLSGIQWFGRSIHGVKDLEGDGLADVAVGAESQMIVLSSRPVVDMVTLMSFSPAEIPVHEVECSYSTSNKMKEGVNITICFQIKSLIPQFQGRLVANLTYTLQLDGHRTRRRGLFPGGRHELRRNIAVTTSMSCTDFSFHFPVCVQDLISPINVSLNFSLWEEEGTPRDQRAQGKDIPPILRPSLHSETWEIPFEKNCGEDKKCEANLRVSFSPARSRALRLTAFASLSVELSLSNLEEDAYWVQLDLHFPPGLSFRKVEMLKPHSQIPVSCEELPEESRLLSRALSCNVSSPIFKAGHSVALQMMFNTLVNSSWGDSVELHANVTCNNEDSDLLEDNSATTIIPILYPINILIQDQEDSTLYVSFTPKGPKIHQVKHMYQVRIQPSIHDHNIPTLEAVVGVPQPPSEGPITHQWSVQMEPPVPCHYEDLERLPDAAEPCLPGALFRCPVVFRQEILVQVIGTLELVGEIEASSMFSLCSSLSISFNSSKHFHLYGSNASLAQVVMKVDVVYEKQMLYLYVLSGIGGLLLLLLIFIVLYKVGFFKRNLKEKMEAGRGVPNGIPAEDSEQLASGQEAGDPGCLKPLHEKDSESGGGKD", "sequence (P05107 23-769, chain 2 of 2, further chain)": "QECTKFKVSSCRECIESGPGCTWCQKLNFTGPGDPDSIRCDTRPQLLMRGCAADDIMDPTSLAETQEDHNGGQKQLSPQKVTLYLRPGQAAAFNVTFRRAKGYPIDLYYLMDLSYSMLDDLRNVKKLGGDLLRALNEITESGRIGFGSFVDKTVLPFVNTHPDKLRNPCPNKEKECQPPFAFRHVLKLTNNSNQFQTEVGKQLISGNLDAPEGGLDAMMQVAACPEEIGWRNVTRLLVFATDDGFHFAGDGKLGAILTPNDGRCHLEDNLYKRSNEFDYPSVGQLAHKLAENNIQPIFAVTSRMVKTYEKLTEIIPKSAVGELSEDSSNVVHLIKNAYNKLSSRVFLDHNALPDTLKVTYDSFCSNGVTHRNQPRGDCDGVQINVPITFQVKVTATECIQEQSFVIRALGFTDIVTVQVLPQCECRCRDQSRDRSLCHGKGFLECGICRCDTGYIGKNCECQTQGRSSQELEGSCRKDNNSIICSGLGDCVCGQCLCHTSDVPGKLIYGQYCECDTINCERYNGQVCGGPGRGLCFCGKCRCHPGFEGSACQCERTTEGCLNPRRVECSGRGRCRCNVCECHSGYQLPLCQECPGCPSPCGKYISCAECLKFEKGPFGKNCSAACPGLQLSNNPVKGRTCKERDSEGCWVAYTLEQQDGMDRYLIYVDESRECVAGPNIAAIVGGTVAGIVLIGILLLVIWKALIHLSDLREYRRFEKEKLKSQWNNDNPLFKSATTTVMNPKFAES", "experiment": "flow cytometry on cells; THP-1 cells, with or without CD11a siRNA, fixed, incubated with 250 nM GBP130-Fc or 250 nM hIgG control in FACS buffer 2 hr; PE-Texas Red anti-human secondary antibody"}, "[2]": {"target": "LFA-1 (CD11a/CD18) on THP-1 cells and primary human NK cells (human (endogenous in THP-1 and primary NK cells)) (UniProt P20701)"}, "[3]": {"target": "LFA-1 αI-Fc fusion protein (human) (UniProt P20701)", "sequence (P20701 153-335)": "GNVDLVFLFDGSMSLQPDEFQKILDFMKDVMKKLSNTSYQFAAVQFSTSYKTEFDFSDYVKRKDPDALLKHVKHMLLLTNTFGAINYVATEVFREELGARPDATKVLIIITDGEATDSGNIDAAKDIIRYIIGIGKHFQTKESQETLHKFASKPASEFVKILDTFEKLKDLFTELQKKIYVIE", "experiment": "BLI; LFA-1 αI immobilised on AR2G (amine reactive) sensor at 100 ng; PfGBP-130-N as analyte at increasing concentrations; 1× PBS pH 7.4; 25°C; 800 s; 1:1 binding model; Octet K2; n≥3"}}, "data": [{"substance": "PfGBP-130 ECD-Fc (extracellular domain of PfGBP-130 fused to the Fc region of human IgG1) (Fc fusion)", "values": [{"measurement": "fold increase in binding over hIgG isotype control (THP-1 cells)", "setting": "[1]", "result": 3, "unit": "fold"}]}, {"substance": "PfGBP-130 extracellular domain fused to the transmembrane domain of transferrin receptor (TfR-TM), on CHO K1 cells", "values": [{"measurement": "CD25 expression on primary human NK cells co-cultured 24 hr with CHO-PfGBP-ECD (2:1, Poly I:C/Lipofectamine 2000) compared to mock CHO cells, flow cytometry; reduced by anti-CD11a (HI111)", "setting": "[2]", "result": 40, "unit": "%"}, {"measurement": "CD69 expression on primary human NK cells co-cultured 24 hr with CHO-PfGBP-ECD (2:1, Poly I:C/Lipofectamine 2000) compared to mock CHO cells, flow cytometry; reduced by anti-CD11a (HI111)", "setting": "[2]", "result": 50, "unit": "%"}]}, {"substance": "PfGBP-130-N (N-terminal fragment of PfGBP-130, aa 69-270) (domain or fragment)", "values": [{"measurement": "Kd", "setting": "[3]", "result": 17, "unit": "nM"}]}]}
